According to patent US20100166704:

Legend:
GST-TIA-1 RRM2 = assay: EMSA; settings: SD ±15 nM, four experiments; relative Kd; n about 1.1
GST-TIAR RRM2 = assay: EMSA; settings: SD ±5 nM, four experiments; relative Kd; n about 1.2

WNV 3'(-) SL RNA (75 nt 3' terminal minus-strand)
Kd (GST-TIA-1 RRM2): 112 nM
Kd (GST-TIAR RRM2): 15 nM
